In patent publication US20180346538A1 (IMMATICS BIOTECHNOLOGIES, published 2018):

Biological target: T1, HLA-A*02:01 (human)
T1 construct: MHC monomer captured on streptavidin plates; also called peptide-receptive MHC molecules; MHC class I
Assay: UV-ligand exchange ELISA (anti-b2m), yield grade
Procedure: Candidate peptides for T cell based therapies according to the present invention were further tested for their MHC binding capacity (affinity). The individual peptide-MHC complexes were produced by UV-ligand exchange, where a UV-sensitive peptide is cleaved upon UV-irradiation, and exchanged with the peptide of interest as analyzed. […] To determine the yield of the exchange reaction, an ELISA was performed based on the detection of the light chain (β2m) of stabilized MHC complexes.
96 well MAXISorp plates (NUNC) were coated over night with 2 ug/ml streptavidin in PBS at room temperature, washed 4× and blocked for 1h at 37° C. in 2% BSA containing blocking buffer. […] Peptide-MHC monomers of the UV-exchange reaction were diluted 100 fold in blocking buffer. Samples were incubated for 1 h at 37° C., washed four times, incubated with 2 ug/ml HRP conjugated anti-β2m for 1h at 37° C., washed again and detected with TMB solution that is stopped with NH2SO4. Absorption was measured at 450 nm.

Binder | peptide exchange yield
GLLDLPFRVGV | 50 to 75%
SLLNQDLHWSL | 50 to 75%
